Several values for one entry are separate records, joined by “and”; a condition that tells them apart may be missing. Equal entries are not always repeated.

The source of these data is patent US10724009B2, “Cannabichromenic acid synthase from Cannabis sativa” (priority 2014, dated 2020).

The subject of test [1] is mouse tetrad model. The following applies: at high concentrations (DeLong et al., 2011); cited from earlier work.
The target of test [2] is T1, recombinant CBCAS (Cannabis sativa, UniProt Q33DQ2, H543R/W244C).
T1 construct: alpha-factor signal peptide (vector encoded) (N); made in house; host or cells: Pichia pastoris strain X33
The experiment in a line: CBCAS assay: conversion of CBGA to CBCA, products analysed by HPLC/LCMS. As to conditions: for inhibition of recombinant CBCAS by additive: FIG. 4, effect of additive on CBCA production, high concentrations; for formation of CBCA from CBGA: recombinant enzyme expressed in Pichia pastoris, CBGA incubated 14 h. The format is biochemical. How it is done: FIG. 4 depicts optimal conditions for CBCAS activity. […] Values are expressed as a fraction of CBCA produced (CBCA A265 nm/(CBGA A265 nm+CBCA A265 nm)*100).
Reactions using media were performed by incubating 10 μmols CBGA in 500 μL of clarified culture media for 14 h. Reactions using hydroxyl-apatite fractions were performed with 100 μL of the fraction incubated with 10 nmols of CBGA for 14 h. Completed reactions were acidified with one drop of 4 N HCl and extracted twice with 400 μL of acetonitrile. After centrifugation, the organic phases were pooled and evaporated to dryness. Products were resuspended in 20 μL of 50% methanol, of which 10 μL was analyzed by LCMS. Products were separated with a Waters Alliance HPLC using a binary solvent system (solvent A: 10% acetonitrile, 0.05% formic acid; solvent B: 99.95% acetonitrile, 0.05% formic acid) and an Ascnetis C18 5 cm×2.1 mm 2.7 μm column (Sigma). Initial conditions: 55% A at 0.25 mL/min. Ramp to 5% A from 0-8 min, hold at 5% A for 2.5 min, return to initial conditions over 2 min and equilibrate at initial conditions for 7 min. Ultraviolet spectra were obtained using photodiode array detection at 200-350 nm.

As for `CCCCCc1cc(O)c2c(c1)OC(C)(CCC=C(C)C)C=C2` (stereo not drawn) [CBC, cannabichromene], in test [1], the “THC-like activity in a mouse tetrad model” value is recorded as “shows THC-like activity”.

Take `C[S+](C)[O-]` [DMSO, reference compound]: in test [2], the “inhibition of recombinant CBCAS by additive” value is “inhibited by high concentrations”.

Consider Triton X-100 [reference compound], for which the “inhibition of recombinant CBCAS by additive” value in test [2] is recorded as “inhibited by high concentrations”.

B1: recombinant CBCAS: Cannabis sativa cannabichromenic acid synthase (SEQ ID NO:2) expressed in Pichia pastoris with alpha-factor signal peptide (protein)
chain: MNCSTFSFWFVCKIIFFFLSFNIQISIANPQENFLKCFSEYIPNNPANPKFIYTQHDQLYMSVLNSTIQNLRFTSDTTPKPLVIVTPSNVSHIQASILCSKKVGLQIRTRSGGHDAEGLSYISQVPFAIVDLRNMHTVKVDIHSQTAWVEAGATLGEVYYWINEMNENFSFPGGYCPTVGVGGHFSGGGYGALMRNYGLAADNIIDAHLVNVDGKVLDRKSMGEDLFWAIRGGGGENFGIIAACKIKLVVVPSKATIFSVKKNMEIHGLVKLFNKWQNIAYKYDKDLMLTTHFRTRNITDNHGKNKTTVHGYFSSIFLGGVDSLVDLMNKSFPELGIKKTDCKELSWIDTTIFYSGVVNYNTANFKKEILLDRSAGKKTAFSIKLDYVKKLIPETAMVKILEKLYEEEVGVGMYVLYPYGGIMDEISESAIPFPHRAGIMYELWYTATWEKQEDNEKHINWVRSVYNFTTPYVSQNPRLAYLNYRDLDLGKTNPESPNNYTQARIWGEKYFGKNFNRLVKVKTKADPNNFFRNEQSIPPLPPRHH
modifications: alpha-factor signal peptide; Cannabis Sativa
For the molecule B1, in test [2] (35, 40, 45 and 50° C. tested), the “temperature of maximal activity” value is 40 °C. Moreover, in test [2] (FIG. 4, effect of buffer and buffer pH on CBCA production), the pH optimum is recorded as 5.5. Moreover, the temperature optimum in test [2] (FIG. 4, effect of incubation temperature on CBCA production) came out at 40 degrees. Further, the “pH of maximal activity” value in test [2] (pH 3.5 to 7 tested) was 5 and 5.5. The “formation of CBCA from CBGA” value in test [2] is on record as “catalyzed the formation of CBCA from CBGA”; in test [2] (listed as CBCAS), “produces CBCA”.
